From patent US20230183322A1 (PEKING UNIVERSITY, published 2023)

These binders were tested against biotin-labeled SARS-COV-2 RBD domain (SARS-CoV-2, UniProt P0DTC2 319-541) (assay: SPR, Biacore T200, biotin-RBD on SA chip, antibody as analyte).

Binder	Kd
ABU-328 (antibody, V domains shown) VH: EVQLVESGGGLVQPGGSLRLSCAASGFTVSSNYMSWVRQAPGKGLEWVSVIYSGGSTYYADSVKGRFTISRDNSKNTLYLQMNSLRAEDTAVYYCARLSGTGYGGDGGWFDPWGQGTLVTVSS VL: QSALTQPASVSGSPGQSITISCTGTSSDVGSYNLVSWYQQHPGKAPKLMIYEVSKRPSGVSNRFSGSKSGNTASLTISGLQAEDEADYYCCSYAGSSLWVFGGGTKLTVL	< 10 nM
ABU-323 (antibody, V domains shown) VH: EVQLVESGGGLVQPGGSLRLSCAASGFTVSSNYMSWVRQAPGKGLEWVSVIYSGGTTYYADSVKGRFTISRHNSKNTLYLQMNSLRAEDTAVYYCARDWGEYYFDYWGQGTLVTVSS VL: not shown	< 20 nM
ABU-393 (antibody, V domains shown) VH: EVQLVESGGGLIQPGGSLRLSCAASGFTVSSNYMSWVRQAPGKGLEWVSVIYSGGSTYYADSVKGRFTISRDNSKNTLYLQMNSLRAEDTAVYYCARDYGDYWFDPWGQGTLVTVSS VL: not shown	< 20 nM
ABU-394 (antibody, V domains shown) VH: EVQLVESGGGLIQPGGSLRLSCAASGFTVSSNYMSWVRQAPGKGLEWVSVIYSGGSTYYADSVKGRFTISRDNSKNTLYLQMNSLRAEDTAVYYCARSYGDYYFDYWGQGTLVTVSS VL: DIQLTQSPSSLSASVGDRVTITCRASQGISSYLAWYQQKPGKAPKLLIYAASTLQSGVPSRFSGSGSGTDFTLTISSLQPEDFATYYCQQLNSFGPGTKVDIK	< 20 nM
ABU-145 (antibody, V domains shown) VH: QVQLQESGPGLVKPSQTLSVTCTVSGGSINRDGHYWIWIRQHPEKGLEWLGYIYSGRNTFYNPSLRSRLSISADTSKSQFSLNLHSVTAADTAVYYCAKMYSDYDDNYYGLDVWGRGTTVTVSS VL: EIVLTQSPGTLSLSPGERATLSCRASHTISSSYLAWYQQKAGQAPRLLIYAASSRATGIPARFSGSGSGTDFTLTISRLEPEDFAVYYCQQFDNSPPWTFGRGTKVEMR	< 10 nM
ABU-181 (antibody, V domains shown) VH: QVQLQESGPGLVKPSQTLSLICTVSDDSISSGSYYWSWIRQPAGKGLEWIGRIYAGESTNYNPSLKSRVIISVDTSKKQFSLRLSSVTAADTAVYYCARGAVVTPFGLDSWGQGTLVTVSS VL: SYELTQPPSVSVSPGQTARITCSGDALPKQYAYWYQQKTGQAPVLVIYKDSERPSGIPERVSGSSSGTTVTLTISGVQAEDEADYYCQSADSSGTWVFGGGTKLTVL	< 10 nM
ABU-205 (antibody, V domains shown) VH: QVQLVQSGAEVKKPGSSVKVSCKASGGTFSSYAISWVRQAPGQGLEWMGRIIPIFGTANYAQKFQGRVTITADESTSTAYMELSSLRSEDTAVYYCARAAYYYDSSGYGWFDPWGQGTLVTVSS VL: not shown	< 10 nM
ABU-210 (antibody, V domains shown) VH: EVQLVESGGGLVQPGRSLRLSCAASGFTFDDYAMHWVRQAPGKGLEWVSGISWNSGTIGYEDSVKGRFIISRDNAKNSLYLQMNSLRAEDTALYYCAKEPLFGETYGMDVWGQGTTVTVSS VL: QSALTQPASVSGSPGQSITISCTGTSSDVGGYNYVSWYQHHPGKAPKLMIYEVSNRPSGVSNRFSGSKSANTASLTISGLQTEDEADYYCSSYTSISTVLFGGGTKLTVL	< 10 nM
ABU-211 (antibody, V domains shown) VH: EAQLVESGGGLVQPGRSLTVSCAVSGFTFDDYAMHWVRQAPGKGLEWVSSISWNSEKIAYADSVKGRFTVSRDNAKNSLYLQMTSLRPEDTALYYCARDKGSGSYYSGAYYYYMDVWGKGTTVTVSS VL: SDALTQPPSVSVAPGKTAAITCGGDNIGSKNVHWYQQKPGQAPLLVVFDDGDRPSGIPERFSGSNSGNTATLTISRVEAGDEADYYCQVWDGGSDDRGYVFGTGTKVTVL	< 20 nM
ABU-254 (antibody, V domains shown) VH: QVQLVQSGAEVKKPGSSVKVSCKASGGTFSSYAISWVRQAPGQGLEWMGRIIPIFGTANYAQKFQGRVTITADESTSTAYMELSSLRSEDTAVYYCARAAYYYDSSGYGWFDPWGQGTLVTVSS VL: not shown	< 10 nM
ABU-288 (antibody, V domains shown) VH: QVQLQESGPGLVKPSQTLSLTCTVSGGSISSGLYHWSWIRQPAGKGLEWIGRIFSSGSTAYSPSLKSRVIISADTSKNQFSLKLSSVTAADTAVYYCARDSPLKFDSFGYPLYGMDVWGQGTTVTVSS VL: DIQMTQSPSSLSASVRDKVTITCRASQSISSCLNWYQQKPGKAPKVLIYAASSLQSGVPSRFSGSGSGTDFTLTISSVQPEDFATYYCQQSYSVPHTFGQGTKVEIK	< 1 nM
ABU-289 (antibody, V domains shown) VH: QVQLVQSGAEVKKPGSSVKVSCKASGGTFSSYTISWVRQAPGQGLEWMGRIIPILGIANYAQKFQGRVTITADKSTSTAYMELSSLRSEDTAVYYCARGIVGATPGYFDYWGQGTLVTVSS VL: EIVMTQSPATLSVSPGERATLSCRASQSVSSNLAWYQQKPGQAPRLLIYGASTRATGIPARFSGSGSGTEFTLTISSLQSEDFAVYYCQQYNNWLTFGGGTKVEIK	< 10 nM
ABU-298 (antibody, V domains shown) VH: QVQLVQSGAEVKKPGASVKVSCKASGYTFTSYGISWVRQAPGQGLEWMGWISAYNGNTNYAQKLQGRVTMTTDTSTSTAYMELRSLRSDDTAVYYCARDESGSYYGDQAFDIWGQGTMVTVSS VL: not shown	< 20 nM
ABU-305 (antibody, V domains shown) VH: QVQLVQSGAEVKKPGASVKVSCKASGYTFTSYGISWVRQAPGQGLEWMGWISAYNGNTNYAQKLQGRVTMTTDTSTSTAYMELRSLRSDDTAVYYCARDGHSAWGAFDIWGQGTMVTVSS VL: not shown	< 20 nM
ABU-312 (antibody, V domains shown) VH: EVQLLESGGGLVQPGGSLRLSCAASGFTFSTYAMSWVRQAPGKGLEWVSVISGSGGSTYYADSVKGRFTISRDNSKNTLYLQMNSLRAEDTAVYYCAKEYYYDSSGYYYREDAFDIWGQGTMVTVSS VL: DIQMTQSPSAMSASVGDRVTITCRASQGISNYLAWFQQKPGKVPKRLIYAASSLQSGVPSRFSGSGSGTEFTLTISSLQPEDFATYYCLQHNSYPRTFGQGTKVEIK	< 20 nM
ABU-316 (antibody, V domains shown) VH: QVQLVESGGGVVQPGRSLRLSCAASGFTFSSYGMHWVRQAPGKGLEWVAVISYDGSNKYYVDSVKGRFTISRDNSKNTLYLQMNSLRAEDTAVYYCAKDPYYYGSGSSNFFDYWGQGTLVTVSS VL: SYVLTQPPSVSVAPGKTARITCGGNNIGSKSVHWYQQKPGQAPVLVVYDDNDRPSGIPDRFSGSNSGNTATLTISRVEAGDEADYYCQVWDSSSDHYWVFGGGTKLTVL	< 10 nM
ABU-317 (antibody, V domains shown) VH: QVQLVESGGGVVQPGWSLRLSCAASGFTFSSFAMYWVRQAPGKGLEWVAVISYDGANKYYADSVKGRFTISRDNSKNTLYLQVNSLRVEDTAVYYCARGPDYYDTGGYFDLWGRGTLVTVSS VL: QSVLTQPPSVSAAPGQKVTISCSGSSSNIGNNYVSWYQQLPGTAPKLLIYDNNKRPSGIPDRFSGSKSGTSATLGITGLQTGDEADYYCGTWDSSLSAGVFGGGTKLTVL	< 20 nM
ABU-319 (antibody, V domains shown) VH: QVQLVESGGGVVQPGRSLRLSCAASGFTFSSYGMHWVRQAPGKGLEWVAVIWYDGSNKYYADSVKGRFTISRDNSKNTLYLQMNSLRAEDTAVYYCAKGEGVYGSGSRYFLDYWGQGTLVTVSS VL: not shown	< 10 nM
ABU-320 (antibody, V domains shown) VH: QVQLVESGGGVVQPGRSLRLSCAASGFTFSSYATHWVRQAPGKGLEWVAVISYDGSNKYHADSVKGRFTISRDNSKNTLYLQMNSLRAEDTAVYYCAREWSRGAVAGTGYFDYWGQGTLVTVSS VL: SYVLTQPPSVSVAPGKTARITCGGNNIGSKSVHWYQQKPGQAPVLVVYDDSDRPSGIPERFSGSNSGNTATLTISRVEAGDEADYYCQVWDSSGDHWVFGGGTKLTVL	< 10 nM
ABU-325 (antibody, V domains shown) VH: EVQLVESGGGLIQPGGSLRLSCAASGFTVSSNYMSWVRQAPGKGLEWVSVIYSGGSTYYADSVKGRFTISRDNSKNTLYLQMNSLRAEDTAVYYCARDRRVGSPYYYYYMDVWGKGTTVTVSS VL: QTVVTQEPSLTVSPGGTVTLTCASSTGAVTSGYYPNWFQQKPGQAPRALIYSTSNKHSWTPARFSGSLLGGKAALTLSGVQPEDEAEYYCLLYYGGAPVFGGGTKLTVL	< 10 nM
ABU-329 (antibody, V domains shown) VH: EVQLVESGGGLVQPGGSLRLSCAASGFTFSSYWMHWVRQAPGKGLVWVSRIKSDGSSTSYADSVKGRFTISRDNAKNTLYLQMNSLRAEDTAVYYCAGKKIYYGSSFDPWGQGTLVTVSS VL: NFMLTQPHSVSESPGKTVTISCTRSSGSIASNYVQWYQQRPGSAPTTVIYEDNQRPSGVPDRFSGSIDSSSNSASLTISGLKTEDEADYYCQSYDSSNQVFGGGTKLTVL	< 10 nM
ABU-330 (antibody, V domains shown) VH: QVQLQESGPGLVKPSQTLSLTCTVSGGSISSGGYYWSWIRQHPGKGLEWIGYIYYSGSTYYNPSLKSRVTISVDTSKNQFSLKLSSVTAADTAVYYCARGGSGSGWYGGRFDYWGQGTLVTVSS VL: EIVLTQSPATLSLSPGERATLSCRASQSVSSYLAWYQQKPGQAPRLLIYDASNRATGIPARFSGSGSGTDFTLTISSLEPEDFAVYYCQQRSNWLFTFGPGTKVDIK	< 10 nM
ABU-337 (antibody, V domains shown) VH: QVQLVESGGGVVQPGRSLRLSCAASGFTFSTSAMHWVRQAPGKGLEWVAGISYDGSNEHLDSVKGRFTISRDNSKNTLYLQMSSLRPEDTAVYYCARCPFWNYGHCYLDNWGQGTLVTVSS VL: EIVLTQSPATLSLSPGERATLSCRASQSVSSYLAWYQQKPGQAPRLLIFDASNRATGIPARFSGSGSGTDFTLTISSLEPEDFAVYYCQQRNKWPGTFGQGTKVEIK	< 20 nM
ABU-339 (antibody, V domains shown) VH: EMQLLESGGGLVQPGGSLRLSCAASGFTFFSYALSWVRQAPGKGLEWVSGISGISDSGGNTYYADSVKGRFTISRDNSQNMLYLQMNSLRVEDTAVYYCAKERRPVLRYFDWLPIEAPDYWGPGTLVTVSS VL: AIQLTQSPSSLSASVGDRVTITCRASQGISSSLAWYQQKPGKAPKLLIYSASTLQSGVPSRFSGSGSGTDFTLTITSLQPEDFATYYCQQLNSYPLTFGGGTKVEIK	< 20 nM
